Assay results reported in patent publication US20200339702A1 (ULTRAHUMAN THIRTEEN, published 2020).

T1: rhesus ERBB3 on transiently transfected HEK-293 cells (rhesus monkey (Macaca mulatta), UniProt P21860 20-1342 (human entry))
T1 construct: also called rhesus ERBB3+ HEK-293 cells
T1 chain: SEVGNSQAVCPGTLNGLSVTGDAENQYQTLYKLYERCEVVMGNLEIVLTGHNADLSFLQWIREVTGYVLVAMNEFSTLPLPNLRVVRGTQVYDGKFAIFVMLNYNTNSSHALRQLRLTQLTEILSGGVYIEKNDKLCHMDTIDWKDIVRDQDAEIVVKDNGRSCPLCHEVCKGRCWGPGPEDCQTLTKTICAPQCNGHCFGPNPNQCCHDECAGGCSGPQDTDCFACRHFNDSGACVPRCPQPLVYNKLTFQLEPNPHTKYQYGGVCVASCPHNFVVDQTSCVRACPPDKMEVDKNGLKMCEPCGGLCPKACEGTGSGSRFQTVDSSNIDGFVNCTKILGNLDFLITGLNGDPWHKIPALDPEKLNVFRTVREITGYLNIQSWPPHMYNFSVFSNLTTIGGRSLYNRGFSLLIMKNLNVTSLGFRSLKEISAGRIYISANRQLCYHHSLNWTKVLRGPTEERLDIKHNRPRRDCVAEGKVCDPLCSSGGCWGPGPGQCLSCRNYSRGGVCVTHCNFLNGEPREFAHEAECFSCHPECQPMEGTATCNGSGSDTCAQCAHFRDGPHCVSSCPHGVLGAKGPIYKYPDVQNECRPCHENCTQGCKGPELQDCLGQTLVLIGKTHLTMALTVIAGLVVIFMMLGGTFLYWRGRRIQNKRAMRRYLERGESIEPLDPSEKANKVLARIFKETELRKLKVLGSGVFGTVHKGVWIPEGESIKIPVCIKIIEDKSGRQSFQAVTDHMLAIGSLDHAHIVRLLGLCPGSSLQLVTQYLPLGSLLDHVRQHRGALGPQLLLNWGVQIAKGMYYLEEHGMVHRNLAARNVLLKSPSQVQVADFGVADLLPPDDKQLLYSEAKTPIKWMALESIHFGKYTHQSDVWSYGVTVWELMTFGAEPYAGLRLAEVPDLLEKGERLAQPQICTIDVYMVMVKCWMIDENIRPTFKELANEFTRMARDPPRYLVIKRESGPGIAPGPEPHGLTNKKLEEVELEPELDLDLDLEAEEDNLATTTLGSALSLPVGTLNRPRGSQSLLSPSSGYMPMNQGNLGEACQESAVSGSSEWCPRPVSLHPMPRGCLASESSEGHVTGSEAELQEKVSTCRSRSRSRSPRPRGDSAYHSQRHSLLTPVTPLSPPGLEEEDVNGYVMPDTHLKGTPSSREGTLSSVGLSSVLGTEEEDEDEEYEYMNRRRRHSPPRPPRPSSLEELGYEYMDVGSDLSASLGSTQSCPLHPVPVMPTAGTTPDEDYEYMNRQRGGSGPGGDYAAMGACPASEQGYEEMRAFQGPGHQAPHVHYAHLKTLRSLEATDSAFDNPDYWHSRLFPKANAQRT

T2: rhesus monkey ERBB3 His tag, monomeric (rhesus monkey (Macaca mulatta), UniProt P21860 20-643 (human entry), limits assumed)
T2 chain: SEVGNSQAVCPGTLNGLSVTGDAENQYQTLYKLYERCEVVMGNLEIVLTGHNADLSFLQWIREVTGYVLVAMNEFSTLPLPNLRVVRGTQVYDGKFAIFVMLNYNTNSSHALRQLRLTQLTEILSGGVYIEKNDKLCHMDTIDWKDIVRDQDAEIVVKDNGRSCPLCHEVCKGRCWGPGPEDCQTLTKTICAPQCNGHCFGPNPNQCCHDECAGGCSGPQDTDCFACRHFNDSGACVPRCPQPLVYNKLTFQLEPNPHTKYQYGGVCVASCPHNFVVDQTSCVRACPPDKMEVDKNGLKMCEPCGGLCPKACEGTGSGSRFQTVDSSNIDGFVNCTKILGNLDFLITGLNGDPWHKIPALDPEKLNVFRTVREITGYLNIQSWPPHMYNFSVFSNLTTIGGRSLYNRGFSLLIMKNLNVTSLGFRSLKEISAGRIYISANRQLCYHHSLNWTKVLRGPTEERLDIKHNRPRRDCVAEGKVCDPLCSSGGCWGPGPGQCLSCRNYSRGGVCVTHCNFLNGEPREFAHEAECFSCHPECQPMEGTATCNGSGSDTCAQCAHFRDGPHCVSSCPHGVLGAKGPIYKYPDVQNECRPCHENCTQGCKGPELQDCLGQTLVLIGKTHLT


Key:
[1] = molecular target: T3, human ERBB3 on transiently transfected HEK-293 cells (human, UniProt P21860 20-1342); test: flow cytometry, human ERBB3-transfected HEK-293
T3 construct: also called human ERBB3+ HEK-293 cells
Description: (§1) Purified IgGs were tested in FACs for binding to human and rhesus monkey ERBB3 expressed on transiently transfected HEK-293 cells and HEK-293 wild-type cells. The IgG samples were titrated in three-fold serial dilutions starting at 500 nM to 0.008 nM. Binding of IgGs was detected with a mouse anti-human IgG conjugated to FITC. Results were analyzed by examining the Mean Fluorescence Intensity (MFI) of 10000 cells per sample in the BL-1 channel detector of a flow cytometer (Attune™ NxT Acoustic Focusing Cytometer, Invitrogen/ThermoFisher Scientific).
(§2) Antibodies to ERBB3 were analysed for concentration-dependent binding at the cell surface via flow cytometry. HEK-293 cells were transiently transfected with either human or rhesus ERBB3 full-length cDNAs. Anti-ERBB3 IgGs and an isotype control were then all tested in IgG1null format, over a concentration range of 500-0.008 nM for binding to human (FIG. 5A) and rhesus (FIG. 5B) transfected cells.

[2] = molecular target: T1, rhesus ERBB3 on transiently transfected …; test: flow cytometry, rhesus ERBB3-transfected HEK-293
Description: as §1, §2

[3] = molecular target: T4, human ERBB3 His tagged, monomeric (human, UniProt P21860 20-643, biotinylated in the Alphascreen assays (sites not given)); test: SPR (Biacore), captured IgG, monomeric ERBB3-His analyte
T4 construct: Used unbiotinylated as Biacore analyte and biotinylated in Alphascreen; treated as one molecule; also called human ERBB3-His (Acrobiosystems); biotinylated monomeric human ERBB3
Description: (§3) Affinity (KD) of purified IgGs was determined via SPR with antigen in-solution on a Biacore® 3000 (GE). A mouse anti-human antibody (CH1 specific) was immobilized on a CM5 Sensor Chip to a level of 2000 RU in acetate buffer at pH 4.5 using amine coupling following the Wizard instructions for two channels. One channel was used for background signal correction. The standard running buffer HBS-EP pH 7.4 was used. Regeneration was performed with a single injection of 10 μl of 10 mM Glycine at pH 1.5 at […]. IgG samples were injected for 2 minutes at 50 nM at 30 μl/min followed by an off-rate of 60 seconds. The monomeric antigen (human ERBB3 His tagged or rhesus monkey ERBB3 His tag) was injected in two fold serial dilutions from 3 nM down to 0.2 nM, for 2 minutes at 30 μl/min followed by an off-rate of 300 seconds. The obtained sensorgrams were analysed using the Biacore® 3000 evaluation (BlAevaluation) software. The KD was calculated by simultaneous fitting of the association and dissociation phases to a 1:1 Langmuir binding model.
(§4) Biacore® analyses of binding affinity were performed for all IgGs to solution-phase, monomeric human and rhesus ERBB3 proteins.

[4] = molecular target: T2, rhesus monkey ERBB3 His tag, monomeric; test: as above
Description: as §3, §4

Binder | maximum MFI, fold over isotype control background [1] | maximum MFI, fold over isotype control background [2] | Kd [3] | koff [3] | kon [3] | Kd [4] | koff [4] | kon [4]
15G11 IgG1null (antibody, V domains shown, Human IgG1null (L234A, L235A, G237A) and human Ckappa) VH: QVQLVESGGGLVKPGGSLRLSCAASGFTFSDYGMSWIRQAPGKGLEWVSTISDSGSYTYYPDSVKGRFTISRDNAKNSLYLQMNSLRAEDTAVYYCARELGDYDGFDYWGQGTLVTVSS VL: DIQMTQSPSSLSASVGDRVTITCRASQEISSYLSWYQQKPGKAPKLLIYAASSLDSGVPSRFSGSGSGTDFTLTISSLQPEDFATYYCLQYDSTPYTFGGGTKVEIK | > 20 fold | > 20 fold | 78 pM | 0.0012 s⁻¹ | 1.6e+07 M⁻¹ s⁻¹ | 330 pM | 0.0011 s⁻¹ | 3.3e+06 M⁻¹ s⁻¹
15E02 IgG1null (antibody, V domains shown, Human IgG1null and human Ckappa) VH: QVQLVESGGGLVKPGGSLRLSCAASGFTFSDYGMSWIRQAPGKGLEWVSTISDSGTTIYYADNVKGRFTISRDNAKNSLYLQMNSLRAEDTAVYYCAREYGDYDGFDYWGQGTLVTVSS VL: DIQMTQSPSSLSASVGDRVTITCRASQSISSYLSWYQQKPGKAPKLLIYAASSLQSGVPSRFSGSGSGTDFTLTISSLQPEDFATYYCLQYDSTPLTFGGGTKVEIK | > 20 fold | > 20 fold | 610 pM | 0.0039 s⁻¹ | 6.3e+06 M⁻¹ s⁻¹ | 2500 pM | 0.0095 s⁻¹ | 3.7e+06 M⁻¹ s⁻¹
15D10 IgG1null (antibody, V domains shown, Human IgG1null (L234A, L235A, G237A) and human Ckappa) VH: QVQLVESGGGLVKPGGSLRLSCAASGFTFSDYGMSWIRQAPGKGLEWVSTISDGGSYTYYADNVKGRFTISRDNAKNSLYLQMNSLRAEDTAVYYCAREWGDYDGFDFWGQGTLVTVSS VL: DIQMTQSPSSLSASVGDRVTITCRASQSISSYLSWYQQKPGKAPKLLIYAASTLQSGVPSRFSGSGSGTDFTLTISSLQPEDFATYYCLQYDSTPLTFGGGTKVEIK | > 20 fold | > 20 fold | 140 pM | 0.0019 s⁻¹ | 1.4e+07 M⁻¹ s⁻¹ | 540 pM | 0.0018 s⁻¹ | 3.3e+06 M⁻¹ s⁻¹
16B09 IgG1null (antibody, V domains shown, Human IgG1null (L234A, L235A, G237A) and human Ckappa) VH: QVQLVESGGGLVKPGGSLRLSCAASGFTFSDYSMSWIRQAPGKGLEWVSTISDSGTYTYYPDSVKGRFTISRDNAKNSLYLQMNSLRAEDTAVYYCAREWGDYDGFDFWGQGTLVTVSS VL: DIQMTQSPSSLSASVGDRVTITCRASQEISSYLSWYQQKPGKAPKLLIYAASTLQSGVPSRFSGSGSGTDFTLTISSLQPEDFATYYCLQYDSTPLTFGGGTKVEIK | > 20 fold | > 20 fold | 89 pM | 0.0014 s⁻¹ | 1.6e+07 M⁻¹ s⁻¹ | 210 pM | 0.0027 s⁻¹ | 1.3e+07 M⁻¹ s⁻¹
09H02 IgG1null (antibody, V domains shown, Human IgG1null and human Ckappa; also called 09HO2) VH: QVQLVESGGGLVKPGGSLRLSCAASGFTFSDYSMSWIRQAPGKGLEWVSTISDGGSYTYYPDSVKGRFTISRDNAKNSLYLQMNSLRAEDTAVYYCARELGDYDGFDYWGQGTLVTVSS VL: DIQMTQSPSSLSASVGDRVTITCRASQSISSYLSWYQQKPGKAPKLLIYAASSLQSGVPSRFSGSGSGTDFTLTISSLQPEDFATYYCLQYDSTPLTFGGGTKVEIK | > 20 fold | > 20 fold | 430 pM | 0.0013 s⁻¹ | 3.1e+06 M⁻¹ s⁻¹ | 250 pM | 0.0027 s⁻¹ | 1.1e+07 M⁻¹ s⁻¹

Further binders by falling Kd [3], results first:

maximum MFI, fold over isotype control background [1] | maximum MFI, fold over isotype control background [2] | Kd [3] | koff [3] | kon [3] | Kd [4] | koff [4] | kon [4] | Binder
> 20 fold | > 20 fold | 1300 pM | 0.0081 s⁻¹ | 6.1e+06 M⁻¹ s⁻¹ | 2100 pM | 0.037 s⁻¹ | 1.7e+07 M⁻¹ s⁻¹ | 11H02 IgG1null (antibody, V domains shown, Human IgG1null and human Ckappa) VH: QVQLVESGGGLVKPGGSLRLSCAASGFTFSDYGMSWIRQAPGKGLEWVSTISDSGSYTYYADSVKGRFTISRDNAKNSLYLQMNSLRAEDTAVYYCAREWGDYDGFDNWGQGTLVTVSS VL: DIQMTQSPSSLSASVGDRVTITCRASQIISSYLSWYQQKPGKAPKLLIYAASSLDSGVPSRFSGSGSGTDFTLTISSLQPEDFATYYCLQYYSTPLTFGGGTKVEIK
> 20 fold | > 20 fold | 260 pM | 0.003 s⁻¹ | 1.1e+07 M⁻¹ s⁻¹ | 260 pM | 0.0047 s⁻¹ | 1.8e+07 M⁻¹ s⁻¹ | 15D03 IgG1null (antibody, V domains shown, Human IgG1null and human Ckappa) VH: QVQLVESGGGLVKPGGSLRLSCAASGFTFSDYGMSWIRQAPGKGLEWVSTISDSGSYIYYADSVKGRFTISRDNAKNSLYLQMNSLRAEDTAVYYCAREWGDYDGFDHWGQGTLVTVSS VL: DIQMTQSPSSLSASVGDRVTITCRASQEISSYLSWYQQKPGKAPKLLIYAASSLQSGVPSRFSGSGSGTDFTLTISSLQPEDFATYYCLQYDSTPLTFGGGTKVEIK
